Assay results taken from patent publication US11591582, “TCRα homing endonuclease variants” (2seventy bio, Inc.).

Biological target: T1, TCRα2.1 megaTAL (10.5 RVD) (synthetic)
T1 chain: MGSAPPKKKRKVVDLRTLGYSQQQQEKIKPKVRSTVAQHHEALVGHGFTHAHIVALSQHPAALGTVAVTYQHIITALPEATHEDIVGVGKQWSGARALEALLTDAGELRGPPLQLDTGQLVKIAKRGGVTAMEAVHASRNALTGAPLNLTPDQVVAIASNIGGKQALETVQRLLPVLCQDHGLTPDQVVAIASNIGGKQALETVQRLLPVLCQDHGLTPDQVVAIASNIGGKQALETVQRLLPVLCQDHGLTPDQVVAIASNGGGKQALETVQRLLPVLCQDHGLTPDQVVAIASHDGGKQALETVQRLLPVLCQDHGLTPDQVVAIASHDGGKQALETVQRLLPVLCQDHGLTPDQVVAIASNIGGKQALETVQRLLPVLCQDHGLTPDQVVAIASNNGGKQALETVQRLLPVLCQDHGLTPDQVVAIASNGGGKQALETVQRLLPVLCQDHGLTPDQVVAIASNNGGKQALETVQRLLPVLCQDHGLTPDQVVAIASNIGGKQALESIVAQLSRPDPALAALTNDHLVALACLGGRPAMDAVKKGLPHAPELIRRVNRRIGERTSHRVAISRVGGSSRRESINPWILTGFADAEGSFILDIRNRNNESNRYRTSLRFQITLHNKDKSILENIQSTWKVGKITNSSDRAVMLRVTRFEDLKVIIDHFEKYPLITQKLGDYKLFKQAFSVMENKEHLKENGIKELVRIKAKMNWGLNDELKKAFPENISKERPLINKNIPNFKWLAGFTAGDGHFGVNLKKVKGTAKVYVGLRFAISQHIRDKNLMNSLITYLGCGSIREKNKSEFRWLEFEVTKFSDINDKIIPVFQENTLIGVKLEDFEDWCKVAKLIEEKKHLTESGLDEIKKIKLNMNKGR
Test: cell_activity; primary human T cells, CD3 knockdown
Conditions: tags: TALE fusion
Source text: A single amino acid substitution, E178D, that increased catalytic activity in another I-OnuI variant was inserted at the active site of the TCRα2.0 megaTAL to generate the TCRα2.1 megaTAL (SEQ ID NO: 8). In vitro transcribed mRNA encoding the TCRα2.1 megaTAL (e.g., SEQ ID NO: 15) was electroporated into primary human T cells. The TCRα2.1 megaTAL increased CD3 knockdown 10-fold compared to the TCRα2.0 megaTAL. FIG. 5.

B1: TCRα megaTAL target site (dsDNA)
DNA 1: AAATCCAGTGACAAGTCTGTCTGCCTATTCACCGATTTT
DNA 2: AAAATCGGTGAATAGGCAGACAGACTTGTCACTGGATTT
- activity: 10 fold vs TCRα2.0 megaTAL
